# Earlier results, collected in US7468440B2, “Malonamides and malonamide derivatives as modulators of chemokine receptor activity” (Bristol-Myers Squibb Company, priority 2003, dated 2008).
# B1: interferon b-1b: interferon b-1b, effective therapy in human multiple sclerosis (protein, UniProt P01574 22-187, looked up, variant C17S)
# Interferon beta: MSYNLLGFLQRSSNFQSQKLLWQLNGRLEYCLKDRMNFDIPEEIKQLQQFQKEDAALTIYEMLQNIFAIFRQDSSSTGWNETIVENLLANVYHQINHLKTVLEEKLEKEDFTRGKLMSSLHLKRYYGRILHYLKAKEYSHCAWTIVRVEILRNFYFINRLTGYLRN
# modifications: interferon beta-1b
# System: MCP-1 expression
# Conditions: human multiple sclerosis, effective therapy
molecule,measurement,value
B1,effect on MCP-1 expression in peripheral blood mononuclear cells,reduces MCP-1 expression
